Experimental data taken from publication PMC8885419, “Identification and mechanism of G protein-biased ligands for chemokine receptor CCR1” (Nature Chemical Biology, 2021).

T1: wild-type full-length human CCR1 fused with LgBiT at the C terminus (cryo-EM construct) (human, UniProt P32246 1-355)
T1 construct: chemokine receptor CCR1, human, wild type, full length; Expressed with a chemokine (CCL15 (26–92), CCL15 (27–92), or CCL3 (4–69) for the apo complex) fused to its N terminus by a GS linker with a TEV site; the linker was cut with TEV protease and 2*MBP removed with 3C protease; Also used here as the target of the functional rows on wild-type CCR1 in cells, whose construct for the G protein …
T1 sequence (looked up): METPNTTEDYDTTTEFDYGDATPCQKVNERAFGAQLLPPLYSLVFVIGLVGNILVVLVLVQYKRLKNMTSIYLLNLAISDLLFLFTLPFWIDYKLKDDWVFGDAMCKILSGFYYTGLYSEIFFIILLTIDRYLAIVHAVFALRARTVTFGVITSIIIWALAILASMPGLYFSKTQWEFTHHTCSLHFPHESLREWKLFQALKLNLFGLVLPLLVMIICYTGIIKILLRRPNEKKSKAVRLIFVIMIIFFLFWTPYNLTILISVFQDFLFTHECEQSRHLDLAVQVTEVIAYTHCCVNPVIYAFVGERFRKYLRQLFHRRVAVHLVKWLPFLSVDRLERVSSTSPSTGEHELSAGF


Experiments:
β-arrestin2 (βarr2) = test: β-arrestin2 recruitment dose-response (method not named for this panel; panel d of the same figure is NanoBiT); settings: agonist CCL15M (CCL15 27-92) at 1e-6 M (highest dose); parent: est. 100; read off a plot
[1] = target: T1, wild-type full-length human CCR1 fused …; test: cryo-EM structure; CCL15-bound CCR1–Gi complexes (CCL15^L, CCL15^M); chemokine expressed fused to CCR1 and cut with TEV; co-expressed with Gi in SF9; NanoBiT tethering of CCR1-LgBiT and Gβ1-SmBiT; scFv16 added; 20 mM HEPES pH 7.5, 100 mM NaCl, LMNG/CHS/GDN; settings: both partners purified

| percent of parent (% wild-type/CCL15M max) (β-arrestin2 (βarr2)) | binding result [1] | Molecule |
| --- | --- | --- |
| 81 | – | CCR1 (1–327 aa) with LgBiT at the C terminal (from UniProt P32246) T86A; W90A |
| 85 | – | CCR1 (1–327 aa) with LgBiT at the C terminal (from UniProt P32246) Y113F; Y255F |
| – | binds | CCL15 (26–92) (ligand, human, UniProt Q16663 47-113, looked up, chemokine CCL15, human, residues 26–92 of CCL15 (1–92), first residue F26; also called CCL15^L; long form CCL15; source: SF9 insect cells, expressed fused to the N terminus of CCR1, cut with TEV protease, purified in the complex) FHFAADCCTSYISQSIPCSLMKSYFETSSECSKPGVIFLTKKGRQVCAKPSGPGVQDCMKKLKPYSI |
| – | binds | CCL15 (27–92) (ligand, human, UniProt Q16663 48-113, looked up, chemokine CCL15, human, residues 27–92 of CCL15 (1–92); In the cryo-EM sample residues of the GS/TEV linker may remain at the C terminus; also called CCL15^M; medium form CCL15; source: SF9 insect cells, expressed fused to the N terminus of CCR1, cut with TEV protease, purified in the complex) HFAADCCTSYISQSIPCSLMKSYFETSSECSKPGVIFLTKKGRQVCAKPSGPGVQDCMKKLKPYSI |
